This assay addresses Ubiquitin (Ub). In words: biotin-streptavidin pull-down and mass spectrometry. The conditions noted are these: N2A cells, triplicate experiments, S0: 1.5, FDR: 0.01, read off a plot.

The results in this text go back to paper PMC4947123.

For “bioGFP-tagged OPTN wild-type (from UniProt Q96CV9) E478G”, the other: Welch's t-test difference (logarithmized ratio of relative protein intensities, WT vs mutant) was found to be 4.1.
